Measurements from publication PMC3720919, “Mcm10 Self-Association Is Mediated by an N-Terminal Coiled-Coil Domain” (PLoS ONE, 2013).
Where “and” joins values, the source holds several entries; their conditions need not be identical. Equal values may be shown once.

Experiments:
[1] = molecular target: the molecule itself; test: SEC-MALS; Superose6 10/300 GL, 0.4 ml/min, 25 mM Tris pH 7.5, 150 mM NaCl, 2% glycerol, 2 mM BME
[2] = molecular target: the molecule itself; test: crystal structure; MBP-CC fusions at 50 mg/mL, sitting drop vapor diffusion, 16°C, sodium acetate pH 4.8; molecular replacement with MBPX(E)
[3] = molecular target: the molecule itself; test: native gel or EMSA; native gel electrophoresis (4-16% Bis-Tris) of the NTD
[4] = molecular target: the molecule itself; test: AUC; sedimentation velocity, 42,000 rpm, 20°C; 0.6 mg/ml in 25 mM sodium acetate pH 4.7, 150 mM NaCl, 0.3 mM TCEP
[5] = molecular target: the molecule itself; test: AUC; sedimentation velocity, 42,000 rpm, 20°C; 0.6 mg/ml in PBS pH 7.4, 150 mM NaCl, 0.3 mM TCEP

B1: Full-length Xenopus laevis Mcm10 (natural protein, UniProt Q5EAW4 1-860, looked up)
chain: MEVDADLELLTSLLEENEAAERNGVVSHEASSELDEFDELFDGDEDGSYHGSDNGTEEQTIGGVEEDFTTLFGDIDDIKEEEAAASDTKKQSSSVCQEKSKDELEDELRKMQAQMKKLQEQLQKTALAKTSSPGNPKKSPENKMVQSGKTSRTSPLIERKKTDSNTVAPQLTSPTVPKAKLPDAPKRKQNLSDKSPVQKKMASFLSPPEKSSARPGQSTATQPITNTLKSPVGQQYHVEKFSGLRIRKPRVSSSEMERKMNGRKLIRLAQLQNKIATEKLEEEDWVTFGVIVKKITPQSSNNGKTFSIWRLNDLKDLDKYISLFLFGDVHKEHWKTDQGTVIGLLNANPMKPKEGTDEVCLSVDNPQKVLLMGDAVDLGTCKARKKNGDPCTQMVNLNDCEYCQYHVQAQYKKVSSKRADLQSSYSGHVPKKMARGANGLRERLCQGGFHYGGVSSMAYAATLGSTTAPKKTVQSTLSNMVVRGAEAIALEARQKIAAAKNVVQTDEFKELMTLPTPGALNLKKHLSGVSPQANCGKEGQPIQSISASTLLKQQKQQMLNARKKRAEESQKRFLESTEKSEKSSTLTSSACSVFQSPKQGAEFPNAQKMATPKLGRGFAEGDDVLFFDISPPPAPKLSTSAEAKKLLAIQKLQAKGQTLAKTDPNSIKRKRGSSSEELVAQRVASHASTSPKSPDENEPAIKKHRDQLAYLESEEFQKILNAKSKHTGILKEAEVEIQEHYFDPLVKKEQLEEKMQSIREQSCRVVTCKTCKYTHFKPKETCVSENHDFHWHNGVKRFFKCPCGNRTISLDRLPKKHCSTCGLFKWERVGMLKEKTGPKLGGETLLPRGEEHGKFLNSLK
notes: Minichromosome maintenance protein 10 (Mcm10), Xenopus laevis, full length (860 residues by the construct 230-860; calculated mass 95.4 kDa); also called xMcm10; full-length Mcm10; source: Hi-5 insect cells (baculovirus, Bac-to-Bac), purified (Ni-NTA, Source Q, Superose6 gel filtration)
stoichiometry N [1]: ~2 Mcm10 subunits and ~3.4 Mcm10 subunits

B2: MBP-CC 95-124 (xMcm10 residues 95-124 fused to maltose binding protein) (domain or fragment, Xenopus laevis, UniProt Q5EAW4 95-124, looked up)
chain: VCQEKSKDELEDELRKMQAQMKKLQEQLQK
notes: Mcm10, Xenopus laevis, coiled-coil region, residues 95-124 (95-122 in the final model); Trimer in the crystal; dimer in sedimentation velocity; MBPX(E) as in PDB 3H4Z; also called xMcm10-CC^95–124; wild-type CC; source: E. coli C41, purified (amylose resin, Superdex S200); not shown: MBP (mutant form MBPX(E) residues 1-367; uncleavable linker AAAMG), N-terminal, kept
stoichiometry N [2]: 3

B3: Mcm10-NTD (aa 1-145) L104A/L108A (2A mutant) (domain or fragment, Xenopus laevis, UniProt Q5EAW4 1-145, looked up)
chain: MEVDADLELLTSLLEENEAAERNGVVSHEASSELDEFDELFDGDEDGSYHGSDNGTEEQTIGGVEEDFTTLFGDIDDIKEEEAAASDTKKQSSSVCQEKSKDEAEDEARKMQAQMKKLQEQLQKTALAKTSSPGNPKKSPENKMV
notes: Mcm10, Xenopus laevis, residues 1-145 with L104A/L108A; also called NTD 2A
binding result [3]: binds

B4: MBP-CC 95-132 (xMcm10 residues 95-132 fused to maltose binding protein) (domain or fragment, Xenopus laevis, UniProt Q5EAW4 95-132, looked up)
chain: VCQEKSKDELEDELRKMQAQMKKLQEQLQKTALAKTSS
notes: Mcm10, Xenopus laevis, coiled-coil region, residues 95-132; MBPX(E) as in PDB 3H4Z (search model); the linker in the 95-124 model is AAAMG; Calculated mass 45.1 kDa; source: E. coli C41, purified (amylose resin, Superdex S200); not shown: MBP (mutant form MBPX(E) from pMALX(E); short uncleavable linker), N-terminal, kept
stoichiometry N [4]: 3 and 2 | stoichiometry N [5]: 1.7 MBP-CC subunits
